# Source: paper PMC1181240
# Target: MMLV RT N-terminal fragment (fingers/palm catalytic fragment) (Moloney murine leukemia virus, UniProt P03355 683-937)
# Assay: X-ray crystallography
# Sequence of MMLV RT N-terminal fragment (fingers/palm catalytic fragment) (P03355 683-937): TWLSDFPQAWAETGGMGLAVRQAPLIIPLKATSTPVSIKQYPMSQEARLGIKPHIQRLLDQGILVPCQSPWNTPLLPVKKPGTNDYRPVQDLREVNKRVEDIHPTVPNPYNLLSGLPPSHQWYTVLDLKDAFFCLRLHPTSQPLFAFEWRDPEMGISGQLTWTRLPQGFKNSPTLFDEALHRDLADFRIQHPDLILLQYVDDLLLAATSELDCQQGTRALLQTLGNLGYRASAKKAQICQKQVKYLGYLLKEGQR
binder,measurement,value
16mer d(CTTAATTCGAATTAAG)2 (dsDNA) DNA 1: CTTAATTCGAATTAAG DNA 2: CTTAATTCGAATTAAG,binding result,binds
